Laboratory results as given in publication PMC2063917.

Legend:
[1] = target: NH2-terminal His6-tagged p40 (UniProt Q7Z6M1); test: pull-down
[2] = target: His6-TIP47(152-434) (UniProt O60664); test: pull-down
UniProt O60664, sequence (O60664 152-434): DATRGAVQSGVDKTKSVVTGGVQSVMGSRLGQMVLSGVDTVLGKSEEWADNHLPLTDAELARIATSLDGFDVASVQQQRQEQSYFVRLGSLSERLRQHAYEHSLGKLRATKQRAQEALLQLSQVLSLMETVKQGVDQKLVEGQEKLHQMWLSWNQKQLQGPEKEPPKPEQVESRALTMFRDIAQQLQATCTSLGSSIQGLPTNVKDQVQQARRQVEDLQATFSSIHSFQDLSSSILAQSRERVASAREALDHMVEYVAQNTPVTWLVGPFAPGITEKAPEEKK

UniProt Q7Z6M1, sequence (Q7Z6M1 whole entry): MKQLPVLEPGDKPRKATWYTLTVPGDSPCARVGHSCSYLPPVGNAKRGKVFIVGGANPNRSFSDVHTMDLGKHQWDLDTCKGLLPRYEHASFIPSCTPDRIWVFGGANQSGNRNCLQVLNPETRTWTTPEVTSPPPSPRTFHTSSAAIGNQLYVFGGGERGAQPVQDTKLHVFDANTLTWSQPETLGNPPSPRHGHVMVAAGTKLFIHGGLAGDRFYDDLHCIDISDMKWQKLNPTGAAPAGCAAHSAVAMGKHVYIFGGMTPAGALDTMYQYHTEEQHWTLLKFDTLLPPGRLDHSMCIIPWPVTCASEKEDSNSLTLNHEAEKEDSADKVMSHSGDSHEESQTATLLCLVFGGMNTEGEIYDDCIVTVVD

pmol Rab9 bound (taken as 100% binding) [1]: 3.9 pmol
pmol Rab9 bound (taken as 100% binding) [2]: 1.5 pmol
Substance: Rab9-CLLL, untagged (from UniProt P24408 1-201) (natural protein)
